Source: US20090075898A1, “Complement C3A Derived Peptides and Uses Thereof” (Yeda Research and Development Co. Ltd. at the Weizmann …, priority 2005, published 2009)

How the values were obtained:
[1] = system: human FcεRI β chain; assay: Surface plasmon resonance, immobilized extracellular loop peptides of human FcεRI β chain; details: SPR
[2] = system: rat FcεRI β chain; assay: Surface plasmon resonance, immobilized extracellular loop peptides of rat FcεRI β chain; details: SPR
[3] = system: rat peritoneal mast cells (RPMC); assay: Secretory response (β-hexosaminidase release) of rat peritoneal mast cells; type: cell-based; details: non-sensitized cells, no antigen
Source text: Rat peritoneal mast cells (RPMC) were isolated as previously described (Kim et al. J. Immunol. 162:4960-4965, […]). Mast cell preparations were ca. 95% pure, as evaluated by flow cytometric monitoring of FcεRI surface expression. Compound 48/80, a specific activator of serosal type mast cells elicited about 50% release of the total β-hexosaminidase content of the isolated rat peritoneal mast cells.
(§1) Secretory response of mast cells.
While mucosal type mast cells are non-responsive to peptidergic stimuli, the serosal type ones have been known for a long time to be stimulated by cationic secretagogues. The anaphylatoxic peptides C3a and C5a initiate the cells' secretory response by binding to their respective receptors expressed by serosal type mast cells. To investigate the effect of the peptides on this mast cell-type, RPMC were used. As expected, these cells did respond to both C5a and C3a (Table 2). However, degranulation was inhibited when peptides C3a7 or C3a9 were added to the IgE-sensitized RPMC and stimulated, 5 min later with a suboptimal antigen dose (Table 2).

[4] = system: RBL-2H3 cells; details: Erdei et al. 1995, 1999; cited from earlier work
[5] = system: bone marrow derived mast cells (BMMC); assay: Secretory response (β-hexosaminidase release) of bone marrow derived mast cells; type: cell-based, mouse
Method: Cells. Bone marrow derived mast cells (BMMC) were prepared from Balb/c mice as described by Nagao et al. (Science 212: 333-335, 1981). After 3 weeks, an approximately 95% pure mast cell population was obtained, showing high expression of FcεRI and stem cell factor receptor (c-kit), as measured by flow cytometry.
as §1
Similar experiments were carried out using bone-marrow derived mast cells (BMMC). […] The control peptide of the sequence DVSNYITR had no effect on either system.

B1: C5a: complement activation product C5a, anaphylatoxic peptide, isolated; used as control (protein)
chain: TLQKKIEEIAAKYKHSVVKKCCYDGACVNNDETCEQRAARISLGPRCIKAFTECCVVASQLRANISHKDMQLGR
[1]
  Reaction with any tested sequences (1st and 2nd loop) of human FcεRI β-chain: did not react
[2]
  Reaction with any tested sequences (1st and 2nd loop) of rat FcεRI β-chain: did not react
[3]
  Stimulation of secretory response of RPMC by the peptide itself: did respond
[4]
  Inhibition of IgE-mediated degranulation of RBL-2H3 cells (literature): has no effect
[5]
  Inhibition of IgE-mediated secretory response of BMMC: had no effect
